Results as given in the supplement of paper PMC10724198.
± gives the standard deviation of the averaged measurements.
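Note: PSI is a weighted mean of sequencing reads over stability bins, variants kept only with over 10 reads, mCherry proximal and sfGFP distal, peptide attached via GGGS linker.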

Each sequence was assayed on Saccharomyces cerevisiae (assay: protein stability index of tFT-peptide fusion (C-terminal peptide) (PSI (0-1 scale)); higher = more stable (slower turnover)). Conditions: genetic background: wild type; temperature: 30 C.
VAGGWVPGRGEG gave a protein stability index of 0.69 ± 0.025.
Sequence VAGWDRETGAWG has a protein stability index of 0.58 ± 0.083.
For VAIRLLCSPLGK, the protein stability index was 0.64 ± 0.029.
With VAIVGCVGKLIR the protein stability index was 0.6468 ± 0.0036.
VAKFYQVLMSEG showed a protein stability index of 0.684 ± 0.014.
In the case of VALNCWGYQWMG, the protein stability index is reported as 0.689 ± 0.04.
With VALSFYVLRRVP the protein stability index was 0.594 ± 0.015.
VALTYRSAGKWA showed a protein stability index of 0.693 ± 0.058.
Work on VAMAGQQLYVTI yielded a protein stability index of 0.665 ± 0.07.
Sequence VAPPPAPFPPIP has a protein stability index of 0.627 ± 0.023.
Sequence VARADLVVTFRI has a protein stability index of 0.703 ± 0.073.
VASKAGVLFGIR was tested, and the protein stability index was 0.673 ± 0.12.
VAVAAPVVRAVI showed a protein stability index of 0.69 ± 0.054.
VAVPGRFTGEGV showed a protein stability index of 0.649 ± 0.061.
In the case of VAVRARRWASGP, the protein stability index is reported as 0.727 ± 0.055.
With VCARSVLFFWAA the protein stability index was 0.782 ± 0.25.
VCDFVLALRGLT gave a protein stability index of 0.649 ± 0.029.
For VCGCWWWCGVGW, the protein stability index was 0.657 ± 0.043.
For VCGGCCEVEVGM, the protein stability index was 0.622 ± 0.041.
Work on VCGGVGGGDNGG yielded a protein stability index of 0.739 ± 0.036.
In the case of VCGLLGGVWLCL, the protein stability index is reported as 0.611 ± 0.021.
With VCGREVKCGEGY the protein stability index was 0.691 ± 0.027.
Work on VCGSILSVFRAY yielded a protein stability index of 0.571 ± 0.0016.
VCGSIRVIAWGD was tested, and the protein stability index was 0.671 ± 0.057.
Work on VCLPPPPLPPSC yielded a protein stability index of 0.692 ± 0.041.
For VCPPPIGYHSYQ, the protein stability index was 0.6674 ± 0.0019.
VCRGWGVCGEWG was tested, and the protein stability index was 0.6243 ± 0.0025.
VCRPLYNSMFGR showed a protein stability index of 0.691 ± 0.023.
VCSRGVCGFLSG gave a protein stability index of 0.67 ± 0.01.
VCTVSGFGVLGA gave a protein stability index of 0.751 ± 0.15.
With VCVAVVGGGCRG the protein stability index was 0.5726 ± 0.0032.
Work on VCVSLNVGGVRF yielded a protein stability index of 0.658 ± 0.024.
With VDIKQDTTNLRL the protein stability index was 0.718 ± 0.0086.
Sequence VDLCRPLSRPTV has a protein stability index of 0.703 ± 0.016.
VDLGAGVCSAVC gave a protein stability index of 0.6195 ± 0.0056.
In the case of VDLYVRRVGVGG, the protein stability index is reported as 0.631 ± 0.037.
VDRRCTGLISSS gave a protein stability index of 0.668 ± 0.05.
VEAWGVGVGSTV gave a protein stability index of 0.676 ± 0.021.
VECPFGTAGCHI gave a protein stability index of 0.659 ± 0.057.
VEESNQILERQS was tested, and the protein stability index was 0.671 ± 0.0093.
In the case of VEFGAPGFVEEW, the protein stability index is reported as 0.734 ± 0.021.
Sequence VEFGGICSYVGC has a protein stability index of 0.724 ± 0.036.
Work on VEFVSKSLGVGW yielded a protein stability index of 0.6756 ± 0.0053.
Sequence VEPTSDNGVVRR has a protein stability index of 0.662 ± 0.025.
For VESGVREEKCMS, the protein stability index was 0.708 ± 0.11.
For VESSSMKGLLCD, the protein stability index was 0.66 ± 0.095.
VFACVHPLASLT was tested, and the protein stability index was 0.681 ± 0.048.
VFCSLAWFGLLL was tested, and the protein stability index was 0.598 ± 0.054.
Sequence VFFLHGLVIYED has a protein stability index of 0.563 ± 0.069.
VFGAAGVRFFVG showed a protein stability index of 0.58 ± 0.022.
VFGRSFFRLFRG was tested, and the protein stability index was 0.6444 ± 0.0031.
Sequence VFGSYFFIPFFL has a protein stability index of 0.498 ± 0.016.
In the case of VFKLRLPAVPHT, the protein stability index is reported as 0.734 ± 0.09.
With VFLSCPCLFFWV the protein stability index was 0.56 ± 0.022.
Sequence VFLVLFDRLLPL has a protein stability index of 0.669 ± 0.0073.
VFMVLLLGFRRF was tested, and the protein stability index was 0.549 ± 0.011.
VFRCSGLFFRDG gave a protein stability index of 0.6621 ± 0.0033.
With VFRHIGVIYNNF the protein stability index was 0.65 ± 0.013.
In the case of VFSALAYVVFKG, the protein stability index is reported as 0.598 ± 0.032.
For VFSLQCVSGIFV, the protein stability index was 0.568 ± 0.076.
VFTFGAGFGARL showed a protein stability index of 0.801 ± 0.022.
For VFVPARGAFHGL, the protein stability index was 0.69 ± 0.018.
In the case of VGACGEYGGFFR, the protein stability index is reported as 0.67 ± 0.035.
VGACWGCGVCPL gave a protein stability index of 0.755 ± 0.049.
Sequence VGCGGGEFSLFG has a protein stability index of 0.727 ± 0.034.
Sequence VGCGGRGGRRGW has a protein stability index of 0.599 ± 0.019.
In the case of VGCGVGGIGVLV, the protein stability index is reported as 0.712 ± 0.1.
Work on VGCLNCWLPFLG yielded a protein stability index of 0.666 ± 0.048.
VGCRGTIAIGGR was tested, and the protein stability index was 0.683 ± 0.0071.
For VGEGGGEVMGEA, the protein stability index was 0.712 ± 0.085.
For VGFGARGVPGGG, the protein stability index was 0.681 ± 0.019.
For VGFGVRTGETVV, the protein stability index was 0.685 ± 0.048.
VGFSAFSDSFFV gave a protein stability index of 0.7224 ± 0.0046.
For VGFVAWFRNVCR, the protein stability index was 0.653 ± 0.044.
For VGFYRADSLLIF, the protein stability index was 0.5763 ± 0.0049.
VGGAAVGAGGGV gave a protein stability index of 0.691 ± 0.054.
In the case of VGGAWRMGRGGG, the protein stability index is reported as 0.658 ± 0.018.
For VGGEGSAGLQCR, the protein stability index was 0.6956 ± 0.0037.
For VGGFCSWVVAWF, the protein stability index was 0.717 ± 0.1.
VGGFRVLCVGLG was tested, and the protein stability index was 0.613 ± 0.04.
VGGGGEWCLVRL was tested, and the protein stability index was 0.685 ± 0.013.
Sequence VGGGGRARRRGS has a protein stability index of 0.701 ± 0.013.
VGGVGGLWGGAV gave a protein stability index of 0.69 ± 0.064.
VGGVRGAGCVRG showed a protein stability index of 0.705 ± 0.024.
Work on VGGVWGLGVRPR yielded a protein stability index of 0.693 ± 0.029.
With VGGWGGVSLGGR the protein stability index was 0.721 ± 0.1.
In the case of VGIFQLCCALGG, the protein stability index is reported as 0.47 ± 0.085.
For VGILTSVQKHSG, the protein stability index was 0.723 ± 0.16.
VGLGGGVRLGRL was tested, and the protein stability index was 0.786 ± 0.09.
With VGLGRPAAAWRR the protein stability index was 0.71 ± 0.00097.
For VGLLCVGAGFWG, the protein stability index was 0.652 ± 0.014.
VGLLGCGMNGGR showed a protein stability index of 0.701 ± 0.068.
In the case of VGLLLAGKIVTY, the protein stability index is reported as 0.604 ± 0.033.
Work on VGLVVVRTMGPC yielded a protein stability index of 0.6463 ± 0.00079.
VGNGGVWSVGRG showed a protein stability index of 0.685 ± 0.038.
Work on VGRAPDFLYGVW yielded a protein stability index of 0.691 ± 0.044.
VGREVSYGRGGD showed a protein stability index of 0.655 ± 0.031.
VGRGCVLGVWEG showed a protein stability index of 0.715 ± 0.035.
Sequence VGRGPSAPVSCV has a protein stability index of 0.726 ± 0.061.
Sequence VGRTNHSRVFRT has a protein stability index of 0.627 ± 0.035.
VGRWGGVSLGGR showed a protein stability index of 0.715 ± 0.09.
In the case of VGSLGVGTFRRD, the protein stability index is reported as 0.692 ± 0.011.
Sequence VGSLRAGYFLRL has a protein stability index of 0.637 ± 0.043.
VGSSLRGWSSRT was tested, and the protein stability index was 0.804 ± 0.045.
Work on VGVAGGRGEEEL yielded a protein stability index of 0.735 ± 0.019.
VGVDCGVLWCLF was tested, and the protein stability index was 0.637 ± 0.015.
VGVFDGAVFSWC showed a protein stability index of 0.726 ± 0.12.
VGVGGGRWCGRG showed a protein stability index of 0.69 ± 0.059.
VGVGGVGGFFGC showed a protein stability index of 0.79 ± 0.037.
For VGVTLSSFSRLP, the protein stability index was 0.693 ± 0.085.
With VGVVRAGWGGAV the protein stability index was 0.65 ± 0.059.
In the case of VGVVVGLVRLLG, the protein stability index is reported as 0.537 ± 0.039.
VGVWTGWDVDCH gave a protein stability index of 0.742 ± 0.076.
VGWGGGESLGWV gave a protein stability index of 0.694 ± 0.13.
In the case of VGYWGMGFWFSG, the protein stability index is reported as 0.65 ± 0.03.
For VHCNLKLDASNF, the protein stability index was 0.719 ± 0.058.
Sequence VHESARAAGSDW has a protein stability index of 0.647 ± 0.062.
VHGAQICCIPWY was tested, and the protein stability index was 0.699 ± 0.063.
Sequence VHGYVRLIWPTI has a protein stability index of 0.696 ± 0.053.
VHHFCSPPLPPP showed a protein stability index of 0.732 ± 0.0095.
In the case of VHHTPFFSAPHV, the protein stability index is reported as 0.647 ± 0.09.
With VHSPLVHILSCS the protein stability index was 0.582 ± 0.012.
For VHTCVSYTNCMD, the protein stability index was 0.703 ± 0.026.
In the case of VICRGGHVLLES, the protein stability index is reported as 0.72 ± 0.098.
VIDHALWCYVGG gave a protein stability index of 0.605 ± 0.0087.
In the case of VIFGCVLSQLDT, the protein stability index is reported as 0.705 ± 0.023.
VIILRWCRVDGF showed a protein stability index of 0.565 ± 0.031.
VIVLVQDVALQL showed a protein stability index of 0.7 ± 0.065.
VKGCKCGRIASY showed a protein stability index of 0.669 ± 0.063.
Work on VKPIFTEYGRYK yielded a protein stability index of 0.626 ± 0.002.
VKQGCISSNCKL was tested, and the protein stability index was 0.762 ± 0.16.
Work on VKRPGVGRSSTA yielded a protein stability index of 0.731 ± 0.051.
With VKTNPEGDGKQE the protein stability index was 0.671 ± 0.021.
Sequence VKVWRTILRLLD has a protein stability index of 0.535 ± 0.0097.
VLACVAQAACCR was tested, and the protein stability index was 0.556 ± 0.054.
Work on VLAGTGGCASVW yielded a protein stability index of 0.739 ± 0.022.
In the case of VLAGVVGQARWW, the protein stability index is reported as 0.731 ± 0.015.
Sequence VLALLPLFFYFH has a protein stability index of 0.5041 ± 0.0041.
Work on VLFCFAHSASFL yielded a protein stability index of 0.536 ± 0.066.
VLGCWEAPFVRC gave a protein stability index of 0.62 ± 0.1.
For VLGGVWAWWVGF, the protein stability index was 0.663 ± 0.022.
In the case of VLGLLFLLCVFM, the protein stability index is reported as 0.6436 ± 0.0038.
Work on VLGVTVRFRGIS yielded a protein stability index of 0.642 ± 0.057.
VLLRSTRRPLPC was tested, and the protein stability index was 0.657 ± 0.036.
VLMVIPRAQVLL showed a protein stability index of 0.697 ± 0.085.
Sequence VLPPTPLTPVLP has a protein stability index of 0.676 ± 0.055.
VLRARQGVREPP showed a protein stability index of 0.526 ± 0.01.
VLRGSFPWLSPV gave a protein stability index of 0.7084 ± 0.0048.
Work on VLSGFICTILIP yielded a protein stability index of 0.596 ± 0.038.
VLSLLVLLLSLP showed a protein stability index of 0.614 ± 0.017.
Sequence VLSSARKEVIIG has a protein stability index of 0.643 ± 0.03.
VLTGFTGSAIIG gave a protein stability index of 0.682 ± 0.03.
VLTVVRVGVGKQ gave a protein stability index of 0.676 ± 0.051.
VLVLVARPLWRI showed a protein stability index of 0.646 ± 0.0094.
Sequence VLVRRVFRRRSR has a protein stability index of 0.786 ± 0.11.
VLVRYSAGTGGT gave a protein stability index of 0.605 ± 0.013.
Work on VMKILQVGDVYN yielded a protein stability index of 0.752 ± 0.021.
Work on VMLSYCHNLTKI yielded a protein stability index of 0.646 ± 0.074.
VMLWAGLFGSSV was tested, and the protein stability index was 0.634 ± 0.018.
With VMTRVIYRGVGR the protein stability index was 0.6643 ± 0.00051.
